The target of data set [1] is T1, PolIV (Escherichia coli, UniProt Q47155).
T1 sequence (Q47155 1-351): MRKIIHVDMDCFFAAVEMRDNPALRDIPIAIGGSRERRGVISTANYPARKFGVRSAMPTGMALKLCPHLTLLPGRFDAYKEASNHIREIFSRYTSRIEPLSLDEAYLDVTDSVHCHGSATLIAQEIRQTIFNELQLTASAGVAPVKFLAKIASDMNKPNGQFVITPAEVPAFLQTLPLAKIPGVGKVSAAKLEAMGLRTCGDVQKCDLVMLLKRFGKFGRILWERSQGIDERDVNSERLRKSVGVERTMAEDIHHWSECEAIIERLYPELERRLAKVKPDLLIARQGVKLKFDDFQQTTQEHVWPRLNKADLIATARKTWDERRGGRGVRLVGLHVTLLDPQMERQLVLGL
The experiment in a line: primer extension, gel. Format: biochemical. The note with it: 6FAM primer/template, 2.5 mM MnCl2, pH 8.0, 37°C.

Substrate in data set [2]: Nc1ccn([C@@H]2O[C@H](COP(=O)(O)OP(=O)(O)OP(=O)(O)O)[C@@H](O)[C@H]2O)c(=O)n1
As to the kind of experiment: primer extension, Lineweaver-Burk. It is filed as biochemical, Mycolicibacterium smegmatis. The note with it: 6FAM 15mer primer/50mer template, 2.5 mM MnCl2, pH 8.0, 37°C.

Changes are numbered by the printed parent chain. In names and notes the source's numbering stands.

By Km is commonly meant the substrate concentration at which the rate is half of its maximum. Broadly, the kcat is the maximal rate divided by the concentration of active sites. For orientation: kcat/Km means the second-order rate constant that governs catalysis at low substrate concentration.

`Nc1ccn([C@H]2C[C@H](O)[C@@H](COP(=O)(O)OP(=O)(O)OP(=O)(O)O)O2)c(=O)n1` [dCTP]: the “primer extension, gel” value in data set [1] is on record as “mutations did not show a significant difference in the ability of PolIV to incorporate dCTP”.

B1: MsDpo4 (Mycolicibacterium smegmatis MC2 155) (protein)
chain: MTKWVLHVDLDQFLASVELRRRPDLRGQPVIVGGSGDPSEPRKVVTCASYEAREFGVHAGMPLRAAARRCPDATFLPSDPAAYDEASEQVMGLLRDLGHPLEVWGWDEAYLGADLPDESDPVEVAERIRTVVAAETGLSCSVGISDNKQRAKVATGFAKPAGIYVLTEANWMTVMGDRPPDALWGVGPKTTKKLAAMGITTVADLAVTDPSVLTTAFGPSTGLWLLLLAKGGGDTEVSSEPWVPRSRSHVVTFPQDLTERREMDSAVRDLALQTLAEIVEQGRIVTRVAVTVRTSTFYTRTKIRKLPAPSTDAGQIVDTALAVLDQFELDRPVRLLGVRLELAMDDVPRPAVTAGT
Turning to B1, in data set [2], the Km came to 55.3 ± 4.0 µM, the kcat came to 0.011 ± 0.00117 s⁻¹ and the kcat/Km worked out at 167 ± 16.7 M⁻¹ s⁻¹.

B2: MsDpo4 (Mycolicibacterium smegmatis MC2 155; L14Y) (protein)
chain: B1 chain with L14Y
On to B2, for which, in data set [2], the Michaelis constant (Km) is 59.54 ± 13.4 µM, the kcat was found to be 0.00167 ± 0.000167 s⁻¹ and the kcat/Km was determined as 26.7 ± 5 M⁻¹ s⁻¹.

Source of the values: article PMC6846668 (Nucleic Acids Research, 2019).
